According to publication PMC7861488:
Where two headings read alike, the source gives them in different places.

Tests used:
Test in all cases: graphene FET
[1] = target: T1, TNF-alpha (UniProt P01375 77-233)
[2] = target: T1, TNF-alpha; remark: listed apart in the source
[3] = target: T1, TNF-alpha; remark: listed apart in the source
[4] = target: T1, TNF-alpha; remark: listed apart in the source
[5] = target: T1, TNF-alpha; remark: listed apart in the source
[6] = target: T1, TNF-alpha; remark: listed apart in the source
[7] = target: T1, TNF-alpha; remark: listed apart in the source
[8] = target: T1, TNF-alpha; remark: listed apart in the source
[9] = target: T1, TNF-alpha; remark: listed apart in the source

T1 sequence (P01375 77-233): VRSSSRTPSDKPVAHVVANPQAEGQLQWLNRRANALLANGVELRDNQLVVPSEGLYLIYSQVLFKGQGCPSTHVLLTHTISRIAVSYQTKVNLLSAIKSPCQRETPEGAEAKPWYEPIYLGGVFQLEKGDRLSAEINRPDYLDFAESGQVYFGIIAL

B1: VR11 (ssDNA)
DNA: TGGTGGATGGCGCAGTCGGCGACAA
modifications: 5'-NH2 (coupled to PASE on graphene)
Kd [1]: 15 nM | Kd [2]: 15.6 nM | Kd [3]: 15.5 nM | Kd [4]: 14.3 nM | Kd [5]: 14.2 nM | Kd [6]: 14.7 nM | Kd [7]: 15.1 nM | Kd [8]: 15.1 nM | Kd [9]: 14.2 nM
